Measured values published in patent US6645939 (MERCK, dated 2003).

Legend:
[1] = biological target: T1, VLA-4 (α4β1) on Jurkat cells, clone E6-1 (UniProt P13612 34-1032; P05556 21-798, limits assumed); experiment: radiolabeled VCAM-Ig (~100 pM) on Jurkat cells, 1 mM MnCl2, filter plates, scintillation counting
T1 construct: whole, on cells; Endogenous integrin on Jurkat cells; also called very late antigen-4; CD49d/CD29
Method: (§1) Compounds of this invention were prepared in DMSO at 100× the desired final assay concentration. Final concentrations were selected from a range between 0.001 nM-100 μM. Jurkat cells were centrifuged at 400×g for five minutes and resuspended in binding buffer (25 mM HEPES, 150 mM NaCl, 3 mM KCl, 2 mM glucose, 0.1% bovine serum albumin, pH 7.4). The cells were centrifuged again and resuspended in binding buffer supplemented with MnCl_2 at a final concentration of 1 mM. […] The plates were incubated at room temperature for 30 minutes, filtered on a vacuum box, and washed on the same apparatus by the addition of 100 μL of binding buffer containing 1 mM MnCl_2. After insertion of the multiscreen plates into adapter plates (Packard, Meriden, Conn., cat# 6005178), 100 μL of Microscint-20 (Packard cat# 6013621) was added to each well. The plates were then sealed, placed on a shaker for 30 seconds, and counted on a Topcount microplate scintillation counter (Packard). Control wells containing DMSO alone were used to determine the level of VCAM-Ig binding corresponding to 0% inhibition. […] Percent inhibition was then calculated for each test well and the $IC50$ was determined from a ten point titration using a validated four parameter fit algorithm.

[2] = biological target: T2, α4β7 integrin on RPMI-8866 cells (human, UniProt P13612 34-1032; P26010 20-798); experiment: radiolabeled VCAM-Ig (<500 pM) on RPMI-8866 cells, MnCl2, filter plates, scintillation counting
T2 construct: whole, on cells; Endogenous integrin on RPMI-8866 cells; also called LPAM-1
Method: as §1, with “μM.” for “μM. Jurkat cells were centrifuged at 400×g for five minutes and resuspended in binding buffer (25 mM HEPES, 150 mM NaCl, 3 mM KCl, 2 mM glucose, 0.1% bovine serum albumin, pH 7.4). The cells were centrifuged again and resuspended in binding buffer supplemented with MnCl_2 at a final concentration of 1 mM.”, “45 minutes on a plate shaker at 200 rpm,” for “30 minutes,”, “1mM” for “1 mM”, “Coon.,” for “Conn.,”, “IC$50$” for “$IC50$”

T1 sequence (P13612 34-1032 limits assumed, chain 1 of 2): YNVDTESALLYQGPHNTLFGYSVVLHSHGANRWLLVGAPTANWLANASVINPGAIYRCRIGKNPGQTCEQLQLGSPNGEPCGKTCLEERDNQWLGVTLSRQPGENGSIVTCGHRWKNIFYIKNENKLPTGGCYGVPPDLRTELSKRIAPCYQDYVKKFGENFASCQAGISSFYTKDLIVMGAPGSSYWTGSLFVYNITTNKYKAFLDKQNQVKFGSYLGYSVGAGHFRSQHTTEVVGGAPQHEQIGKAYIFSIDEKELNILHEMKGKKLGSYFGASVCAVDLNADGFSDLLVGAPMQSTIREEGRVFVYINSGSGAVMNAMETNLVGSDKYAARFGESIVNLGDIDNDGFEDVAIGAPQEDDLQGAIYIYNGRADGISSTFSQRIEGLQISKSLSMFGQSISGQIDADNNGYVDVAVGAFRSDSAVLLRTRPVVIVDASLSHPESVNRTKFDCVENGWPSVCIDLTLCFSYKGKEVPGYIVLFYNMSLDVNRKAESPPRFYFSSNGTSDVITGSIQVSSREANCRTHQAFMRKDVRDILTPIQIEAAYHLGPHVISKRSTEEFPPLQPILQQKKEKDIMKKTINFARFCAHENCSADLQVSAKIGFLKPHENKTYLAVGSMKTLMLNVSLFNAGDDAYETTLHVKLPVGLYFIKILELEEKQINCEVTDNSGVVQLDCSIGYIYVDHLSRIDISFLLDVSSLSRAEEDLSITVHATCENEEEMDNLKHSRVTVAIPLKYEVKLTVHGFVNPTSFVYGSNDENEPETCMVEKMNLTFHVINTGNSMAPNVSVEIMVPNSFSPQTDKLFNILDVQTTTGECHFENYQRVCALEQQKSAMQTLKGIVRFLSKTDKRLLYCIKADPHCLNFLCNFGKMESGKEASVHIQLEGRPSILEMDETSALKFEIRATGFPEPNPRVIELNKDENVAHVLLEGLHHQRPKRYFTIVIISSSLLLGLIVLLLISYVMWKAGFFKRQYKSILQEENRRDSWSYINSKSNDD
T1 sequence (P05556 21-798 limits assumed, chain 2 of 2): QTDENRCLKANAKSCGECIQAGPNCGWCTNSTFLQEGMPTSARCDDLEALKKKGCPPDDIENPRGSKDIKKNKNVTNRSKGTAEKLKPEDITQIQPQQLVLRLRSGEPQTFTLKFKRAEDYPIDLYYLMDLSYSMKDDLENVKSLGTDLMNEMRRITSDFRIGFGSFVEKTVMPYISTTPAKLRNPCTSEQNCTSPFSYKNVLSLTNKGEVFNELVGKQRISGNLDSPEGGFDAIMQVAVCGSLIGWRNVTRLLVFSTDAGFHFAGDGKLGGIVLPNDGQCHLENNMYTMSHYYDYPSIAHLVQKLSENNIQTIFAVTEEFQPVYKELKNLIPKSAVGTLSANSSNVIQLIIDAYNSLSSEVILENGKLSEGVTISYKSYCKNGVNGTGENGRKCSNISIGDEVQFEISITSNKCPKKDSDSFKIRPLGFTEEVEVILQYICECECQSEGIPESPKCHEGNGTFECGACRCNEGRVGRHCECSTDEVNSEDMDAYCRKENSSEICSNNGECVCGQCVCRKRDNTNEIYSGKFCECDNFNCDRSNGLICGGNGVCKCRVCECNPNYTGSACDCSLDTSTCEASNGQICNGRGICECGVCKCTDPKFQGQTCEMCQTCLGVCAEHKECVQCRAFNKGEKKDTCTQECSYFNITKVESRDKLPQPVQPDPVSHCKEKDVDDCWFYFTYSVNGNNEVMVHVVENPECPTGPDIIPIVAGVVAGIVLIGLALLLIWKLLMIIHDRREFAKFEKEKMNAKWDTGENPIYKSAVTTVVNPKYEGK
T2 sequence (P13612 34-1032, chain 1 of 2): as the sequence (P13612 34-1032 limits assumed, chain 1 of 2) above
T2 sequence (P26010 20-798, chain 2 of 2): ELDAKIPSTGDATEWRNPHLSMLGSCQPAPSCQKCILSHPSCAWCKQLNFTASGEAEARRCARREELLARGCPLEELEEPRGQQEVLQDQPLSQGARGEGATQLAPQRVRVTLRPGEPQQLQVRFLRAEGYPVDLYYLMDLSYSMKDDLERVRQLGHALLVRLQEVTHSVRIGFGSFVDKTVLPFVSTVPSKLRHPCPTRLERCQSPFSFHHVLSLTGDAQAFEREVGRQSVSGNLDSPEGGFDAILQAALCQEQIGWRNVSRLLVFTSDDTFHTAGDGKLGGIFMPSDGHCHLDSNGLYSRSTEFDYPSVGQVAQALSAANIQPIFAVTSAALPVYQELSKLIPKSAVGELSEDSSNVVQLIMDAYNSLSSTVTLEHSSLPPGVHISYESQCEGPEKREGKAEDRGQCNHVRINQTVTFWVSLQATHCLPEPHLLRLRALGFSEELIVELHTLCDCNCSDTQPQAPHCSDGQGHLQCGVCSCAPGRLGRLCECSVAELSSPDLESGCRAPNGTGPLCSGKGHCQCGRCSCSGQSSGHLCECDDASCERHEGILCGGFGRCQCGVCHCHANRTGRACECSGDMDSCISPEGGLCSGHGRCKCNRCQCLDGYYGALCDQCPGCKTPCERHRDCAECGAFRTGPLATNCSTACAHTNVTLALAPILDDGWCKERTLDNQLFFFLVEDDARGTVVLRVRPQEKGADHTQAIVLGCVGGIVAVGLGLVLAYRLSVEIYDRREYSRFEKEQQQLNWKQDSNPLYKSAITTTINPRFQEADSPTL

binding result [1]: binds
binding result [2]: binds
B1: VCAM-Ig fusion protein (Fc fusion, not shown: small tags and cut ends)
chain: FKIETTPESRYLAQIGDSVSLTCSTTGCESPFFSWRTQIDSPLNGKVTNEGTTSTLTMNPVSFGNEHSYLCTATCESRKLEKGIQVEIYSFPKDPEIHLSGPLEAGKPITVKCSVADVYPFDRLEIDLLKGDHLMKSQEFLEDADRKSLETKSLEVTFTPVIEDIGKVLVCRAKLHIDEMDSVPTVRQAVKEL
modifications: labeled with 125I-Bolton Hunter reagent (sites not given)
